Results: the NTF2 design screens of Basanta et al. (2020)

Assay: protease stability score; higher = more stable; yeast display proteolysis, trypsin and chymotrypsin;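 further: relative to predicted unfolded state with 0 unfolded-like and 1 meaning tenfold more protease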

Sequence	protease stability score
SEEDKWAEIMARLMSYLNHTGDEENFDRLADPDVRMDINGREVHGRETFNRYLRHIRIRFHDLISRDSTEVNGVLIIHGESDITIEYDGVRLRDHPKSVFYVLKINGRWRIKSISFH	1.41
SEEDKWIKDMTHLFLHWFLTGDEEIFNHFADPNVRVQYGDKWRVGRERVSEFNEFVLRELRFKEIRLKNLSTQGEKATSIVRVDVQFDGKEIDIEIRIHIVVVDGVLKQVEIRET	0.795
SEEDKYAKLVIRLLEEMIRTGDEESSIRLADPHARVNINGKDMHGREEFTKWIRQFDVVRDFELKDSDYQGDFIFVDGVLDGEVGDKRMRTKVEIIIFKFNGKWRTKEVWVR	1.38
SEEDQHIEEALRRISKVIHTGDEDKLEELVDPHVRLDVGDKVFHGWEDFVRFMTELRFHHMHVTHLETQGDKVRVELSLDREQGDKRKEMHAHIVLEKIDGKWVVREVEMR	1.35
SEEDQLLHHQMETWRHMIHTGDEELLERFLDPTVRIEYDGQEHHGRETAAHLFRELAEKLGIEFEDLEIHETEIQGDKIRVDTILYVDINGRKLVFRTHTVWEKINGRWILREIKIE	0.043
SEEDRDLHESAKLSEEIEDTGDEHMIHKQADPNVRLDYNGREFHGREMFSKMMIEWFTKLGVDHVHRKEMRIQGDWIHLHFEVRVGDKRHEVHVVALKVNGRWLHHSFEVHER	1.16
SEEDRDMEHVINVLRHLMVTGDEEELTKMADPTAYSDVNGVELHGREAFSRIVKLMGVKHVEIRDFTVQGDKVDVDGETRFENHHRFSIIHLRKINGRWYIERMRLE	0.771
SEEDRDRHKALELIRESSRTGNEELTSRLADPHVRLVFNGRDVHGREEMVRYMHEFGIDHLHIDRLHVQGDKIHIEGSNDWNGVVTELHVLMVKVNGRWRIREVEWR	1.23
SEEDRDVRHFLEVWWHRVQTGDEDSLHELADPRMRVDINGRILHGREHISRFMIELTESFGATPEDFQIEHVDTVGNKVHIKTRIFIRQGNFNLIRDTEMIVLKVDGRWLLTEVRVR	2.6
SEEDRFAIEVSEELSRAIETGDEDRLRHLLDPNVKVNVGDKTLHGREEYLHYLRELLRDLGVDVIHIEFQDVRFIGDKLVIDGSLDLRVGDKVIEHKITIIIWKFDGRWVSHSEHIH	1.25
SEEDRFLYEFARTILHLFETGNEEIFHKLADPHVRLHVNGVDNVGWERSYKFFHEEVRELRFHTWRIRDHRTFENRAHLDIEVDTEFNGVRLHLKSTLDVVVVNGRLKFFHIKQE	0.424
SEEDRILELIARMMFNLWLTGNEEELERLVDPNARSVINGQEVHGMHETKELLRRLKEHIRIDDMRISRIEVYNGRAIVDLSVDGEFNGRRDITRVEIVIYVVDGKVRSIEFHRK	1.78
SEEDRLHEEWIEESFKIWETGDEERFWKMVDPEYLFRLDIDGVHLESHGRENAREHFREQLSRLGIKYLDLHEIHLQGNKAILDVRVNFNGQERHVIIRLLIIDGRIKKREIEIR	1.41
SEEDRLLEELLKLYLHLEATGNEDRFAELVDPDARMDFNGREHHGREEIRHHMVKHWKDLGVKHLHIDRFRYFNGVLDVRGHLKVNGREKDVVWILEIIDGRIHEIRHHLH	1.28
SEEDRSSREAVEIYIWIIETGDEHLMEEFLDPHVRSHQGEFHSHGREVAHVYVKKFKNLKVRVREVRTQGDKVIIISEMRIGDFRLELTIIIWKYNGKWIVQEVDIK	1.67
SEEDRYDKKMLERLNEAEHTGDWRLFLRQADPDPRTVIGDKELHGWEILEEFLLKIHEQYKGMRFEYRDIDVQGDKIRIEYDLFINGKFTETILIADKVNGKWIIKSHELR	0.898
SEEDSKAMEMLDEWLKWLLTGNEHIFRTLADPHVRLTIGDKEHVGREHVIRMFHELRIDHFHVHDVRTQGDKAFMSGRMEGTVDGKKEDTDIRIFLVIVNGRIKHIELRIH	1.52
SEEDTERTERFELMLHSWLTGDEEFWEKNADPNARLKLLVNGRDIRFHGREMVSEAIRKTLDDLGVDHRRIEHKEVQGDKVHIHQKIDVGDKELKVRIVVVVINGRNEMIIVEVI	2.26
SEEDTMAKTLTKMEIELLRTGDEDLLWRLADPNVKLHINGRDLHGRETFEEWMKRFLEQVDVLRIEHREIRTAEGHLELDMHVDSYFDGVRFTTRLIVEVIKVDGRWFIRFREEQ	1.21
SEEDVLHHELARIYWRDFVTGDEDSLRRLMDPEAKVNFDGRENHGREFYEEILRLFLEKFRGVRFEEHRSRFIGEFTHIDVRMHIDGKTHSLKVLVTVVNGKVHSIHIQLR	1.26
SEEEDDLQHYIDVLRHILHTGDWQKFSEMADPTVKLKINGVEYHGREKLAHMLKKHLEELGYTRIEVELRSITIQGEFIKSDIKLDVNGQELRVRVDFYKINGKWSMTFLQIE	1.45
SEEEDEIRKMLEEVLKNWRTGNEERIYELADPNTRVEIDGREHHGRHVVAHLIKEWRIHDFILRRVDVQGNKVIIHGELEGEFDGKRTNLHTNLVLVKIDGRWVIESLHYV	1.41
SEEEDESEEMARLFVKANITGDEKFLYHMADPHVRIHIHQGNKYIELHGREKLEYWLKEWLEKFKNIRYTINDMKVVGEKVTIESTLQIGDKRIHMQIVIVVINGRIHKFEFHLH	0.755
SEEEDESKLATELLIKLLRTGNEHLSERLMDPNMRIVVNGVELHGREEAQRHMREMITQIKNAKIEIRDERTQGEYIKVNMILHYGDKTIDLRVVLVKVDGRWKITEIVLN	1.8
SEEEDFMRQVYHWFLELWLTGDEDIFKKLADPDTLLDWNGVQSVGMEEFHRLLHEMEERLGVKHKEYKRFRIQGNKVHLDLVHEFNGRRIKTEIVVVVVNGRFKEIRIRHH	1.79

Sequence	protease stability score
SEEEDHAKEMFRILIENLITGDEDTLRKLIDPDVRFIYGDKLHVGWKDFREWQHRMDRRVKNMKIHVRDMRVYNGVSHAETEEHYNGKTVETEVHFKVIDGQLKHLEIRIH	0.188
SEEEDHIREFLLLIIHAFRTGDEEFFERNVDPNVRLHSDVDGRELQLHGRDEFSRYFHHFRHRAGIDHIEDKRVTSQGDKIIVHGWSIVGDKIHHLELHFIVIDGQVHTVEIRPK	1.28
SEEEDHIRRAIERFSKDQETGDEDSIRELLDPHVRMHVDGQELIGRDLILKFWSELRVHHWEMHSVRVVGDYVDFDVTLDMRVGDKSHRIKATLIILKIDGRWILKLVIID	1.19
SEEEDISRNLLEIFLRVLLTGDEHAISRLLDPRVLVIFHFENRDIILHGRSNVLKWLHDRLREIRINDWSVKSVEVQGNKAHQDTRIDIIIGDKKIDKEVEVNITVVDGKVKHLEIRVH	2.21
SEEEDKARHLFDRLVHAWHTGDWRELKHLLDPNAKFVLEYGDKKETYHGMDEEIRYLEELHKRVDHIHFLIRHVDIQGDKLRVEGELEYRVGDYERRIPTSYEVIVIDGRIHEIISRIH	2.11
SEEEDLFRKIIELLLRLSKTGDEETWRRLMDPHARLEINGRIFHGREYAERFMTQFDHIHSIEIKDMHIYNGKVEEHGHVDGIVNGRRTKHDMVFILVKVDGVWLIEEVVVR	1.39
SEEEDLHRHIMRLFLEWVLTGDEEDLYHFADPHTQFRYGDYELHGMEKIVEEILRFTHELRITHFTIHQMDVFNGKAESDVEWHKDVNGQEVRFRLKLILIVINGRTKSIEIRHK	1.23
SEEEDLMRHLTELYIRAFETGDEDHLRKLADPHVRLHVDIDGKRLDFHGMEQTSEWWERMGIDVHHLHHHEFIGDKSHIDSEVVFNGRKRKFEINVVIVNGRIKSERHIFK	0.691
SEEEDLVQKAFEIFVHDIRTGDEDSLIENADPNVRLLINGVIFHGREEFKFIMRHWRIRRIELHDYRIQGDKAHVESRMDIEFNGRIRITHVELVILKVNGQWLIHTIKVI	0.454
SEEEDLWKEFLRRLVETSNTGNERILSELFDPRTRIIYNGVDYVGREWALFMFLRADHVHIRIKSVDVQGEKAHVDGRMIQFVGDKEERHEVQLIDVKIDGRWLIRMMTVR	1.51
SEEEDMARHFNELFIKMLKTGNEEEIKKMADPEVRIIIDVGDYIERDHGWEVLKREREWLGIKHIDIERAEIRVFDGRVHLKLDGRSNVNGKEIEVEIINDTEKINGRWRMKNLRYIFK	1.08
SEEEDMKRKLAEIFLHNELTGNEDRLMELLDPNTRMEFNGREVHGREQISEVLRRWLEEIRIDDSKLHDIRVINGVAHIDVRLRGTVDGRHTILQVHLYLFVVNGRIKSFRIEIR	1.53
SEEEDQARKIMEILIHVFLTGDWHQLMRLLDPNTRYEIRFENHEEHNHGREDIVRWLIEFIEEMRTLVIIRHIEVQGDKAILDIELQLDINGREFRWKTLLHFRIVDGVLKMYYIHIE	1.47
SEEEDRIRQALELELHYLRTGDEDSTRRLIDPHMKLTVNGKEHHGMDWFIEELRRVDHIEMHPHHIHSFGEKAHIRVKLTLHFDGVTFERDVTIVFHKVDGRWVIESMQLD	1
SEEEDTADEAIKLWLKLFITGDERTLARMMDPNTLNVVGDKEFHGWQFIIELVHKLFEEIRIHELTVEHLHVQGDKVRIDIRIDSRQGDKRHETKVEVILRKVNGRWTVEVIEIH	2.39
SEEEDTMRHLLHLLIEWELTGDWKNWQKLADPRTRIEINGRELHGRETYAEFIREVLEQFKNLVIHDFIMHDVKVFDGRVIVDGYVDTEINGVRTHIRVEFILIVVNGKLRRVSRIVR	1.57
SEEEDYMRELAERFLHAFITGDWQFIYKMFDPRVRWNVDGQNFVGREQLVHHLEKIKREMRVRHFELKDIKIIDGVSFINGRVDTTYGDKSSEHEVHISLVLIDGRVKHVQIRLE	2.34
SEEEEAARHVLEEWLRSIRTGDEEFTERLLDPEARFHVNGVEIIGREHIIRRLREIRIHDIKMDVREIRIVDGRISIDVTYRIDGEVNGVKVDTSHEVRLVFVKINGRWLNRKEEVR	1.66
SEEEEAEREFWEEFLRTSRTGDEELFEELIDPNVKIDINGRDLHGMEEALDTFRELRIKDIKVKHVEEQGDKIILDGRVDGIFDGKYDRVEVTFFVLKIDGRWVYHSIRLE	1.13
SEEEEAKRDLDERWFRSIETGDFHTLEKLLDPHAKVRINGKDYHGREYLEWEIRDLGVKVMEQRVIIHREHRQGDKIHLQGEIIRILHVDGREEHHRFEVHYVMLKINGRWILHRMEFR	0.883
SEEEEATKEMSRLVLENLKTGDFDAFHRLFDPNAKLDVGDKHFHGREQIHEWYLHVREELGVDVSRVHEKHIQVIGNKVILHGELHLRIGDKRDDTTMWIVSKKFDGRWILSSMRIS	1.32
SEEEEDAEEFSRLFAELMKTGDEESLHRLADPDVRLHYGDKDHHGREQYTESWKRILDELGVDNVRIELKSVRVINGVVYVDSLVRVGDKTFRLIVIFRKINGRWRLESVKVE	1.29
SEEEEDAERAERLIFEYHRTGDERLFRELVDPNVRLRVGDKEYHGREDFLRIMLELRIDRMHLHEIRVVDGRVHSRTEVDGTWNGRKFLTETESIIIKINGRWVLHSFHFH	1.69
SEEEEDAHRNIELLVRYLITGDEETVSRLVDPHVKTDINGQEDHGWQIMSILMEKFKNVTLRLHDIETQGNFAVINMKMRFNGQTFDLHFFARKVNGRWFVEHIKIRQN	1.62
SEEEEDARQAFEEYTESLKTGDEDTLDRLLDPDTLLIINGREIHGMEEAIRIWHVWLRHMRFRSQEMRRIRVIDGKIDIESRSIIDINGREVDLRVHYILHKVNGRWLIESVRFE	2.38
